Reference: patent US20260250421A1 (BIOCYTOGEN PHARMACEUTICALS BEIJING, published 2026)

T1: human PTK7 on human cancer cell lines (human, UniProt Q13308 31-1070)
T1 construct: Endogenous PTK7 of human tumour cell lines; also called PTK7 on A-431, NCI-H520, NCI-N87, SK-OV-3, BT-20, HCC1954, NCI-H226, NCI-H358, HCT116, PC-3, NCI-H292, NCI-H1975 cells
T1 sequence: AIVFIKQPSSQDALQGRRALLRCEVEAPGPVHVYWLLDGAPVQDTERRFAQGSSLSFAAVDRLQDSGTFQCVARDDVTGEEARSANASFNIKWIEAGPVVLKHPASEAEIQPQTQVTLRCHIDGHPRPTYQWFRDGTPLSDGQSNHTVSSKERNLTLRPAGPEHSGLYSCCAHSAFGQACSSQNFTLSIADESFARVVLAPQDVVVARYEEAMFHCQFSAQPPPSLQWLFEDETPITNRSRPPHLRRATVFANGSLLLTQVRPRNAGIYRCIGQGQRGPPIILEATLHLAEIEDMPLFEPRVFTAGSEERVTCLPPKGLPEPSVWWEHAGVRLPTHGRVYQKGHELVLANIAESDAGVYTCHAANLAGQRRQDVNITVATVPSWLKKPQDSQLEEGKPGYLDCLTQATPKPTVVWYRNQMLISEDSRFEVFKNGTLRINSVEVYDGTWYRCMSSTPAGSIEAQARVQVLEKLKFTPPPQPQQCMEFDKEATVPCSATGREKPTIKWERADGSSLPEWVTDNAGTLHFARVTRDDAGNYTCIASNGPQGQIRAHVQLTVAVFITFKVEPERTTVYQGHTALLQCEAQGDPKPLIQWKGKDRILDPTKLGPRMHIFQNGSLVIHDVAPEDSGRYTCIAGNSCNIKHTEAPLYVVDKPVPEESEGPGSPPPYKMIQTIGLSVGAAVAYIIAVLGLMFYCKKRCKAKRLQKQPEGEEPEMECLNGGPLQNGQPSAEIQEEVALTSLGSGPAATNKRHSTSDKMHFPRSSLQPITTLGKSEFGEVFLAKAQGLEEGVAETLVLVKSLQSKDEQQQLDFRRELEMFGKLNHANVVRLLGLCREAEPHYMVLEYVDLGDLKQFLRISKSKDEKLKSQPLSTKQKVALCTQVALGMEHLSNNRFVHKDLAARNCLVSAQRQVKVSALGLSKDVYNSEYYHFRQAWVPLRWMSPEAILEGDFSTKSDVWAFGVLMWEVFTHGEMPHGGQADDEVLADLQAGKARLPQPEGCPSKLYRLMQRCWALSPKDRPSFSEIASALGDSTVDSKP

T2: His-tagged human PTK7 protein (human, UniProt Q13308 31-704)
T2 construct: Bought protein; also called hPTK7-His; not shown: His tag
T2 sequence: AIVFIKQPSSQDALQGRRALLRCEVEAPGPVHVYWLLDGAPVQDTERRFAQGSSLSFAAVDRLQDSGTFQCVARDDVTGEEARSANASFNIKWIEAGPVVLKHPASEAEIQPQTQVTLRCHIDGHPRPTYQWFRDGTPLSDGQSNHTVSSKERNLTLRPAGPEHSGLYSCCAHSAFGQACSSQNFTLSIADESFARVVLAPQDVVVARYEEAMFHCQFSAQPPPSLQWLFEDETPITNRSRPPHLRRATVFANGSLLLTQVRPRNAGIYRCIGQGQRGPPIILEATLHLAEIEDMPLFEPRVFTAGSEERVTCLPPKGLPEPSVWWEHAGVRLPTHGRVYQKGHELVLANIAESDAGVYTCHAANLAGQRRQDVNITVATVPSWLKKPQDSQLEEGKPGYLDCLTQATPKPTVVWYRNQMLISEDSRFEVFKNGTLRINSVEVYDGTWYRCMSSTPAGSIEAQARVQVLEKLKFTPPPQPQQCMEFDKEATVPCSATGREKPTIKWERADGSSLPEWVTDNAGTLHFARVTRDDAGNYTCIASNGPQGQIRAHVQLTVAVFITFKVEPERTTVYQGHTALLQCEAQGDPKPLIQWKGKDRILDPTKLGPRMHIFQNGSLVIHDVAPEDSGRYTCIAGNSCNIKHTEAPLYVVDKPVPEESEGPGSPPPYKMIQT


Key:
[1] = target: T1, human PTK7 on human cancer cell lines; test: flow cytometry, A-431 cells, Ab 5 ug/mL
Description: (§1) The binding activity of anti-PTK7 antibodies to cancer cell lines was verified by flow cytometry. […] Purified anti-PTK7 antibody with a concentration of 5 μg/mL was added to each well and was incubated at 4° C. for 30 minutes. […] The cells were collected, and the mean fluorescence intensity (MFI) was determined. Human IgG1 was used as ISO control.

[2] = target: T1, human PTK7 on human cancer cell lines; test: flow cytometry, SK-OV-3 cells, Ab 5 ug/mL
Description: as §1

[3] = target: T1, human PTK7 on human cancer cell lines; test: flow cytometry, NCI-H358 cells, Ab 5 ug/mL
Description: as §1

[4] = target: T2, His-tagged human PTK7 protein; test: BLI Octet binning on hPTK7-His; competitor 1A7
Description: (§2) Relative positions of target protein epitope between a pair of purified anti-PTK7 antibodies were analyzed by Biolayer Interferometry (BLI) using ForteBio Octet system at 30° C. A total of […] purified antibodies were used: 1A7, 1A11, 1F2, 2A5, 2D11, 2F5, 3C4 and 3E6.
(§3) 1×HBS-EP+ buffer (10 mM 4-(2-hydroxyethyl)-1-piperazineethanesulfonic acid (HEPES), 150 mM NaCl, 3 mM ethylenediaminetetraacetic acid (EDTA) and 0.05% P20, pH7.4) diluted from HBS-EP+ buffer (10×) was used as the running buffer throughout the experiment. His-tagged human PTK7 protein was captured at a flow rate of 10 μL/min, and 200 nM of antibody (Analyte 1) was injected at a flow rate of 30 μL/min to bind the ligand. Another antibody (Analyte 2) was injected under the same conditions to determine whether the binding of different antibodies interfered with each other. The binding time was 300 s for each antibody.
(§4) The binding value of each antibody was obtained using Data Analysis HT 12.0. To quantify the interference of one antibody binding to another, a binding ratio was calculated to compare each pair of antibodies. The binding ratio is defined as the binding value of the second antibody (Analyte 2), divided by the binding value of the first antibody (Analyte 1). […] In general, antibody pairs that interfere with each other have the same or overlapping epitopes.

[5] = target: T2, His-tagged human PTK7 protein; test: BLI Octet binning on hPTK7-His; competitor 1F2
Description: as §2, §3, §4

[6] = target: T2, His-tagged human PTK7 protein; test: BLI Octet binning on hPTK7-His; competitor 3C4
Description: as §2, §3, §4

[7] = target: T2, His-tagged human PTK7 protein; test: BLI Octet binning on hPTK7-His; competitor hu24 analog
Description: as §2, §3, §4

| Binder | MFI [1] | MFI [2] | MFI [3] | binding ratio [4] | binding ratio [5] | binding ratio [6] | binding ratio [7] |
| --- | --- | --- | --- | --- | --- | --- | --- |
| 1A7 (antibody, human IgG1, V domains shown, also called anti-PTK7 antibody 1A7) VH: QVQLVESGGGVVQPGRSLRLSCAASGFTFSNYGMHWVRQAPGKGLEWVAVIYYDGSNKFYADSVKGRFTISRDNSKNTLYLQMSSLRAEDTAVYYCARDVAPPGSRAEYFHHWGQGTLVTVSS VL: not shown | 91100 | 197000 | 52900 | 0.08 | 0.84 | 0.66 | 0.2 |
| 2A5 (antibody, V domains shown, also called anti-PTK7 antibody 2A5) VH: QVQLVQSGGGVVQPGRSLRLSCAASGFTFSNYGMHWVRQAPGKGLEWVAVIWYDGRNKYYADSVKGRFTISRDNSKNTLYLQMNSLRAEDTAVYYCARDVAPAGSRAEYFQNWGQGTLVTVSS VL: not shown | 173000 | 283000 | 87700 | -0.02 | 0.78 | 0.62 | 0.04 |
| 2D11 (antibody, V domains shown, also called anti-PTK7 antibody 2D11) VH: QVQLVESGGGVVQPGRSLRLSCAASGFTFSSYGMHWVRQAPGKGLEWVAVIFYDGSNKYYADSVKGRFTISRDNSKNTLYLQMNSLRAEDTSVYYCARDVAAPGSRAEYFQNWGQGTLVTVSS VL: not shown | 295000 | 371000 | 103000 | 0.17 | 0.93 | 0.81 | 0.21 |
| 2F5 (antibody, V domains shown, also called anti-PTK7 antibody 2F5) VH: QVQLVESGGGVVQPGRSLRLSCVASGFTFSNYGMHWVRQAPGKGLEWVAIIYYDGSNKYYADSVKGRFTISRDNSKNTLYLQMNSLRAEDTAVYYCARDVAAAGSRAEYLHHWGQGTLVTVSS VL: not shown | 106000 | 178000 | 51900 | 0.12 | 0.85 | 0.71 | 0.19 |
| 1A11 (antibody, V domains shown, also called anti-PTK7 antibody 1A11) VH: QVQLVQSGPGLVKPSETLSLTCTVSGGSINSYYWNWIRQPPGKGLEWIGYIYYSGSTNYNPSLKSRVTISVDTSKNQFSLKLSSVTAADTAVYYCARDPHDYIRGHFDLWGRGTLFTVSS VL: not shown | 247000 | 319000 | 89400 | 0.71 | 0.86 | 0.67 | 0.97 |
| 1F2 (antibody, V domains shown, also called anti-PTK7 antibody 1F2) VH: QVQLVQSGGGLVQPGGSLRLSCAASGFTFSRYEMNWVRQAPGKGLEWVSYINSIGSAINYADSVKGRFTISRDNAKNSLYLQMRSLRAEDTAVYYCVREDNWNPGYWGQGTLVTVSS VL: not shown | 156000 | 210000 | 33900 | 0.64 | 0.03 | 0.48 | 0.95 |
| 3C4 (antibody, V domains shown, also called anti-PTK7 antibody 3C4) VH: QVQLEQSRAEVKKPGESLRISCKGSGYSFTSYWISWVRQMPGKGLEWMGRIDPSDSYTNYNPSFQGHVTISADKSISTAYLQWSSLKASDTAMYYCARRDGSYFDFDYWGQGTLVTVSS VL: not shown | 186000 | 304000 | 98800 | 0.87 | 0.9 | 0.16 | 1.22 |
| 3E6 (antibody, V domains shown, also called anti-PTK7 antibody 3E6) VH: QVQLVESGAEVKKPGESLRISCRGSGYSFTSYWISWVRQMPGKGLEWMGRIDPSDSYTKYSPSFQGHVTISADKSISTAYLQWSSLKASDTAMYYCARRDGDYFDFDYWGQGTLVTVSS VL: not shown | 289000 | 373000 | 117000 | 0.71 | 0.74 | 0.11 | 0.98 |
